According to patent US20210269521A1 (L AND L BIOPHARMA, published 2021):

Columns and labels:
[1] = biological target: T1, human TIM-3 extracellular domain-human IgG1 Fc fusion protein (human, UniProt Q8TDQ0 22-199); test: ELISA; pH 6.0, 37°C 7 days
T1 construct: Made in house or bought (ACROBiosystems TM3-H5258); also called TIM-3-hFc; not shown: human IgG1 Fc

[2] = biological target: T2, human PD-1 extracellular domain protein expressed in Example 1 (tag not stated) (human, UniProt Q15116 25-170); test: ELISA; pH 6.0, 37°C 7 days
T2 construct: extracellular domain; also called PD-1 protein; not shown: human IgG1 Fc or his tag

[3] = biological target: T1, human TIM-3 extracellular domain-human …; test: ELISA; pH 5.5, 37°C 10 days
[4] = biological target: T2, human PD-1 extracellular domain protein …; test: ELISA; pH 5.5, 37°C 10 days
[5] = biological target: T1, human TIM-3 extracellular domain-human …; test: ELISA; 37°C 0 day, against 0 day
[6] = biological target: T2, human PD-1 extracellular domain protein …; test: ELISA; 37°C 0 day, against 0 day
[7] = biological target: T1, human TIM-3 extracellular domain-human …; test: ELISA; 40°C 0 day, against 0 day
[8] = biological target: T2, human PD-1 extracellular domain protein …; test: ELISA; 40°C 0 day, against 0 day
[9] = biological target: T1, human TIM-3 extracellular domain-human …; test: ELISA; pH 5.5, 0 day, against 0 day
[10] = biological target: T2, human PD-1 extracellular domain protein …; test: ELISA; pH 5.5, 0 day, against 0 day
[11] = biological target: T2, human PD-1 extracellular domain protein …; test: ELISA; preparation buffer, 37°C 7 days
[12] = biological target: T1, human TIM-3 extracellular domain-human …; test: ELISA; pH 6.0, 37°C 7 days, against 0 day
[13] = biological target: T2, human PD-1 extracellular domain protein …; test: ELISA; pH 6.0, 37°C 7 days, against 0 day
[14] = biological target: T1, human TIM-3 extracellular domain-human …; test: ELISA; pH 5.5, 40°C 5 days, against 0 day
[15] = biological target: T2, human PD-1 extracellular domain protein …; test: ELISA; pH 5.5, 40°C 5 days, against 0 day
[16] = biological target: T1, human TIM-3 extracellular domain-human …; test: ELISA; pH 5.5, 40°C 10 days, against 0 day
[17] = biological target: T2, human PD-1 extracellular domain protein …; test: ELISA; pH 5.5, 40°C 10 days, against 0 day
[18] = biological target: T1, human TIM-3 extracellular domain-human …; test: ELISA; preparation buffer, 37°C 7 days, against 0 day
[19] = biological target: T2, human PD-1 extracellular domain protein …; test: as above
[20] = biological target: T1, human TIM-3 extracellular domain-human …; test: ELISA; preparation buffer, 37°C 14 days, against 0 day
[21] = biological target: T2, human PD-1 extracellular domain protein …; test: as above
[22] = biological target: T3, human TIM-3 extracellular domain-his tag protein (human, UniProt Q8TDQ0 22-199); test: SPR Biacore, antibody captured on Protein A, antigen in flow
T3 construct: Made in house or bought (ACROBiosystems TM3-H5229); also called TIM-3-his; Human Tim3-his; not shown: his tag
Protocol: (§1) First, Protein A (Thermo Pierce, Cat #21181) was conjugated to the biosensing chip CMS (Cat. #BR-1005-30, GE), and the chip was activated with the newly prepared 50 mM NHS (N-hydroxysuccinimide) and 200 mM EDC [1-ethyl-3-(3-dimethylaminopropyl) carbodiimide hydrochloride], then 10 μg/ml Protein A prepared with 10 mM NaAC (pH 4.0) was injected. […] The flow rate was 30 μl/min, the binding time was 180 seconds and the dissociation time is 300 seconds. Subsequently, the chip was washed for 30s with 10 mM Glycine-HCl (pH 1.5) at 30 μl/min. The data were fitted with a 1:1 Langmuir model using the software of Biacore T200 evaluation version 3.0 (GE), and the affinity value KD was obtained.

Human PD-1-his = biological target: T4, Human PD-1-his (human, UniProt Q15116 25-170); test: as above
T4 construct: extracellular domain; not shown: his tag
Protocol: as §1

[23] = biological target: T2, human PD-1 extracellular domain protein …; test: double-sandwich ELISA: PD-1 coated, LB141 titrated, detected with Bio-TIM-3-his and streptavidin-HRP
Protocol: After discarding the liquid, 200 μl/well of blocking solution of 5% skimmed milk (Sangon Biotech (Shanghai) Co., Ltd., A600669-0250) diluted with PBS was added, and the microplate was placed at 4° C. overnight (16-18 hours) for blocking. After discarding the blocking solution, the microplate was washed 5 times with PBST buffer (pH 7.4 PBS containing 0.05% tween-20). […] Followed by washing the plate 5 times with PBST, 50 μl/well of 1 μg/ml Bio-TIM-3-his (ACROBiosystems, TM-H5229) was added and incubated at 37° C. for 1 hour. Then the microplate was washed 5 times with PBST again, and 50 μl/well 1:1000 diluted streptavidin-HRP secondary antibody (Nanjing Genscript Biotech Corporation, M00091) was added and incubated at 37° C. for 1 hour. After washing the microplate 5 times with PBST, 50 μDwell TMB chromogenic substrate (KPL, 52-00-03) was added and incubated at room temperature for 5-10 min.

B1: bispecific antibody LB141 (bispecific antibody, human IgG4 S228P, kappa)
light: EIVLTQSPATLSLSPGERATLSCRASKGVSTSGYSYLHWYQQKPGQAPRLLIYLASYLESGVPARFSGSGSGTDFTLTISSLEPEDFAVYYCQHSRDLPLTFGGGTKVEIKRTVAAPSVFIFPPSDEQLKSGTASVVCLLNNFYPREAKVQWKVDNALQSGNSQESVTEQDSKDSTYSLSSTLTLSKADYEKHKVYACEVTHQGLSSPVTKSFNRGEC
heavy: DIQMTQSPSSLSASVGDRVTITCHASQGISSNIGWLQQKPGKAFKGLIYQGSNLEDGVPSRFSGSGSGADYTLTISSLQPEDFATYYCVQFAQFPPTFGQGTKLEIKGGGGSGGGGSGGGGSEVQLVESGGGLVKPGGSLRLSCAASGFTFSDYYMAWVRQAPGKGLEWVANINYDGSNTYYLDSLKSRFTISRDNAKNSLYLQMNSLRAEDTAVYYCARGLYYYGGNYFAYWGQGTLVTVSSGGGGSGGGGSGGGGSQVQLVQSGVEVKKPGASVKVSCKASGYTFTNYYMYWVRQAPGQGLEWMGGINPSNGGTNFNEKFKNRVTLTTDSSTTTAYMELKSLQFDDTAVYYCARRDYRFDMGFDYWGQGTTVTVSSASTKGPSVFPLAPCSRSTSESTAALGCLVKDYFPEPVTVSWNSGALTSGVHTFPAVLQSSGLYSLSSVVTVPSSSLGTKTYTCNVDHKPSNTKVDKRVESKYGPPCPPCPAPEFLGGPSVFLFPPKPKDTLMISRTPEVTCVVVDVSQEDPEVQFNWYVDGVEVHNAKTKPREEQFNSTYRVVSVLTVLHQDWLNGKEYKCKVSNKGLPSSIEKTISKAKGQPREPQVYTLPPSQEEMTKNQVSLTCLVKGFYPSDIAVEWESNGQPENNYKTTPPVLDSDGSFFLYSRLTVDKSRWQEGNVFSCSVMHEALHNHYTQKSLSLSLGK
notes: ab6VL-(G4S)3-ab6VH-(G4S)3-PemVH-hIgG4 with PemVL-κ
Question: What does the source list for B1?
Answer: EC50 [1]: 0.136 nM; EC50 [2]: 0.116 nM; EC50 [3]: 0.307 nM; EC50 [4]: 0.199 nM; Fold change of EC50 [5]: 1 ratio; Fold change of EC50 [6]: 1 ratio; Fold change of EC50 [7]: 1 ratio; Fold change of EC50 [8]: 1 ratio; Fold change of EC50 [9]: 1 ratio; Fold change of EC50 [10]: 1 ratio; EC50 [11]: 0.331 nM; Fold change of EC50 [12]: 0.83 ratio; Fold change of EC50 [13]: 0.79 ratio; Fold change of EC50 [14]: 0.95 ratio; Fold change of EC50 [15]: 1.1 ratio; Fold change of EC50 [16]: 1.04 ratio; Fold change of EC50 [17]: 1.19 ratio; Fold change of EC50 [18]: 1.07 ratio; Fold change of EC50 [19]: 0.86 ratio; Fold change of EC50 [20]: 47.9 ratio; Fold change of EC50 [21]: 1.18 ratio; Kd [22]: 5.05 nM; koff [22]: 0.00393 s⁻¹; kon [22]: 777000 M⁻¹ s⁻¹; Kd (Human PD-1-his): 6.63 nM; koff (Human PD-1-his): 0.00285 s⁻¹; kon (Human PD-1-his): 430000 M⁻¹ s⁻¹; EC50 [23]: 0.816 nM
